T1: Activin A (homodimer of two inhibin βA subunits; R&D Systems, #338-AC) (human, UniProt P08476 311-426)
T1 construct: Bought protein; also called inhibin-βA dimer
T1 sequence: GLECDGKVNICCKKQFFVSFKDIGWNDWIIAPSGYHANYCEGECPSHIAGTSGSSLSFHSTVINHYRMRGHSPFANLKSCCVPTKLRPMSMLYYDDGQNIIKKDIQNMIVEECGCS

T2: BMP10 (human, UniProt O95393 317-424)
T2 sequence (looked up): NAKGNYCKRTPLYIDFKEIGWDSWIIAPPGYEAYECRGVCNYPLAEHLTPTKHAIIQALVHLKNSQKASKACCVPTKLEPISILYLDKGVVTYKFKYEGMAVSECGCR

T3: BMP9 (human, UniProt Q9UK05 320-429)
T3 sequence (looked up): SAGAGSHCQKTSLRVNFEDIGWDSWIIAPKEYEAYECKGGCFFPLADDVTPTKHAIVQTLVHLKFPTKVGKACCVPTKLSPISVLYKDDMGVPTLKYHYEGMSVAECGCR


Tests used:
[1] = target: T1, Activin A (homodimer of two inhibin βA …); test: SPR blocking: 5 nM Activin A + 1.88 nM binder over hActRIIA-hFc surface
Procedure: (§1) The binding signal (RU) was measured at 150 seconds after the start of the injection, and this signal was subtracted by the measured RU value for a negative control reference surface to determine the specific binding signal.

[2] = target: T1, Activin A (homodimer of two inhibin βA …); test: SPR blocking: 5 nM Activin A + 15 nM binder over hActRIIA-hFc surface
Procedure: as §1

[3] = target: T1, Activin A (homodimer of two inhibin βA …); test: SPR blocking: 5 nM Activin A + 7.50 nM binder over hActRIIA-hFc surface
Procedure: as §1

[4] = target: T1, Activin A (homodimer of two inhibin βA …); test: SPR blocking: 5 nM Activin A + 3.75 nM binder over Follistatin-288 surface
Procedure: as §1

[5] = target: T1, Activin A (homodimer of two inhibin βA …); test: SPR blocking: 5 nM Activin A + 0.00 nM binder over hActRIIA-hFc surface
Procedure: as §1

[6] = target: T1, Activin A (homodimer of two inhibin βA …); test: SPR blocking: 5 nM Activin A + 60 nM binder over Follistatin-288 surface
Procedure: as §1

[7] = target: T1, Activin A (homodimer of two inhibin βA …); test: SPR blocking: 5 nM Activin A + 0.94 nM binder over hActRIIA-hFc surface
Procedure: as §1

[8] = target: T1, Activin A (homodimer of two inhibin βA …); test: SPR blocking: 5 nM Activin A + 0.94 nM binder over Follistatin-288 surface
Procedure: as §1

[9] = target: T1, Activin A (homodimer of two inhibin βA …); test: SPR blocking: 5 nM Activin A + 1.88 nM binder over hActRIIB-hFc (Control 4) surface
Procedure: as §1

[10] = target: T1, Activin A (homodimer of two inhibin βA …); test: SPR blocking: 5 nM Activin A + 0.94 nM binder over hActRIIB-hFc (Control 4) surface
[11] = target: T1, Activin A (homodimer of two inhibin βA …); test: SPR blocking: 5 nM Activin A + 30 nM binder over hActRIIB-hFc (Control 4) surface
Procedure: as §1

[12] = target: T1, Activin A (homodimer of two inhibin βA …); test: SPR blocking: 5 nM Activin A + 7.50 nM binder over hActRIIB-hFc (Control 4) surface
[13] = target: T1, Activin A (homodimer of two inhibin βA …); test: SPR blocking: 5 nM Activin A + 3.75 nM binder over hActRIIA-hFc surface
Procedure: as §1

[14] = target: T1, Activin A (homodimer of two inhibin βA …); test: SPR blocking: 5 nM Activin A + 30 nM binder over Follistatin-288 surface
Procedure: as §1

[15] = target: T1, Activin A (homodimer of two inhibin βA …); test: SPR blocking: 5 nM Activin A + 15 nM binder over hActRIIB-hFc (Control 4) surface
[16] = target: T1, Activin A (homodimer of two inhibin βA …); test: SPR blocking: 5 nM Activin A + 30 nM binder over hActRIIA-hFc surface
Procedure: as §1

[17] = target: T1, Activin A (homodimer of two inhibin βA …); test: SPR blocking: 5 nM Activin A + 60 nM binder over hActRIIA-hFc surface
Procedure: as §1

[18] = target: T1, Activin A (homodimer of two inhibin βA …); test: SPR blocking: 5 nM Activin A + 3.75 nM binder over hActRIIB-hFc (Control 4) surface
Procedure: as §1

[19] = target: T1, Activin A (homodimer of two inhibin βA …); test: SPR blocking: 5 nM Activin A + 0 nM binder over Follistatin-288 surface
Procedure: as §1

BMP10 = target: T2, BMP10; test: cell-based or functional assay
[20] = target: T1, Activin A (homodimer of two inhibin βA …); test: SPR blocking: 5 nM Activin A + 1.88 nM binder over Follistatin-288 surface
Procedure: as §1

[21] = target: T1, Activin A (homodimer of two inhibin βA …); test: SPR blocking: 5 nM Activin A + 60 nM binder over hActRIIB-hFc (Control 4) surface
Procedure: as §1

[22] = target: T1, Activin A (homodimer of two inhibin βA …); test: SPR blocking: 5 nM Activin A + 15 nM binder over Follistatin-288 surface
Procedure: as §1

[23] = target: T1, Activin A (homodimer of two inhibin βA …); test: SPR blocking: 5 nM Activin A + 0.00 nM binder over hActRIIB-hFc (Control 4) surface
Procedure: as §1

[24] = target: T1, Activin A (homodimer of two inhibin βA …); test: SPR blocking: 5 nM Activin A + 7.5 nM binder over Follistatin-288 surface
Procedure: as §1

BMP9 = target: T3, BMP9; test: cell-based or functional assay

Row | Binder | % bound RU w/no inhibitor [1] | % bound RU w/no inhibitor [2] | % bound RU w/no inhibitor [3] | % bound RU w/no inhibitor [4] | % bound RU w/no inhibitor [5] | % bound RU w/no inhibitor [6] | % bound RU w/no inhibitor [7] | % bound RU w/no inhibitor [8] | % bound RU w/no inhibitor [9] | % bound RU w/no inhibitor [10] | % bound RU w/no inhibitor [11] | % bound RU w/no inhibitor [12] | % bound RU w/no inhibitor [13] | % bound RU w/no inhibitor [14] | % bound RU w/no inhibitor [15] | % bound RU w/no inhibitor [16] | % bound RU w/no inhibitor [17] | % bound RU w/no inhibitor [18] | % bound RU w/no inhibitor [19] | IC50 [M]; inhibition of 4 nM BMP10 in W-20-17/BRE-luc cells (BMP10) | other results
1 | H4H10436P2 (antibody, human IgG4, V domains shown, H4H prefix means human IgG4 Fc) VH: QVQLVESGGGVVQPGRSLRLTCVASGFTVSSYGMHWVRQAPGKGLEWVAVMFYDESKKYYADSVKGRFTISRDNSKNTLYLQMNSLRVEDTAVYYCARDEQLDFEYWGQGTLVTVSS VL: not shown | 55% | 2% | 2% | 16% | 100% | 2% | 75% | 78% | 60% | 80% | 3% | 3% | 16% | 2% | 2% | 2% | 2% | 19% | 100% | > 1e-07 M | % bound RU w/no inhibitor [20]: 61%; % bound RU w/no inhibitor [21]: 4%; % bound RU w/no inhibitor [22]: 1%; % bound RU w/no inhibitor [23]: 100%; % bound RU w/no inhibitor [24]: 1%
2 | H4H10429P (antibody, human IgG4, V domains shown, H4H prefix means human IgG4 Fc) VH: QVQLVESGGGVVQPGRSLRLSCVASGFTVSSYGIHWVRQAPGKGLEWVSVIWYDGRNKDYADSVKGRFTISRDNSKNTVYLEMKGLRAEDTALYYCARDKTGDFDSWGQGTLVTVSS VL: DIQMTQSPSSLSASVGDRVTITCRASQNINSFLSWYQQKPGKAPKFLIYDASSIQSGAPSRFSGSGSGTDFTLTISSLQPEDFATYYCQQSYSSPFTFGQGTKLEIK | 66% | 1% | 1% | 20% | 100% | 3% | 87% | 97% | 67% | 87% | 2% | 2% | 19% | 2% | 2% | 1% | 1% | 19% | 100% | 3.5e-09 M | IC50 [M]; inhibition of 800 pM BMP9 in W-20-17/BRE-luc cells (BMP9): 8.1e-09 M; % bound RU w/no inhibitor [20]: 80%; % bound RU w/no inhibitor [21]: 3%; % bound RU w/no inhibitor [22]: 1%; % bound RU w/no inhibitor [23]: 100%; % bound RU w/no inhibitor [24]: 1%

Source: patent US20150037339A1 (Regeneron, published 2015)
